Measurements from the supplement of paper PMC10724198.
± gives the standard deviation of the averaged measurements.

Assays:
Saccharomyces cerevisiae [1] = assay: protein stability index of tFT-peptide fusion (C-terminal peptide) (PSI (0-1 scale)); higher = more stable (slower turnover); settings: genetic background: wild type; temperature: 30 C
Saccharomyces cerevisiae [2] = assay: as above
Description: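 MPS profiling in S. cerevisiae of the tFT-X12 degron library: putative degron peptides plus stable controls, 12 aa, fused to the C-terminus of a sfGFP-mCherry timer. Cells are FACS-sorted into 8 mCherry/sfGFP bins and deep-sequenced. PSI runs from 0 (unstable) to 1 (stable). Backgrounds are wild type, das1Δ and doa10Δ at 30 °C, and wild type, das1Δ, cdc34-1 and cdc53-1 at 37 °C; 2-3 technical replicates each.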

[3] = genetic background: cdc34-1, temperature: 37 C
[4] = genetic background: cdc53-1, temperature: 37 C
[5] = genetic background: das1 deletion, temperature: 30 C
[6] = genetic background: das1 deletion, temperature: 37 C
[7] = genetic background: doa10 deletion, temperature: 30 C
[8] = genetic background: wild type, temperature: 30 C
[9] = genetic background: wild type, temperature: 37 C
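Further: PSI is a weighted mean of sequencing reads over stability bins, variants kept only with over 10 reads, mCherry proximal and sfGFP distal, peptide attached via GGGS linker.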

## VCNQVPGVIWFC
Saccharomyces cerevisiae [1]
  protein stability index: 0.481 ± 0.022
Saccharomyces cerevisiae [2]; [3]
  protein stability index: 0.683 ± 0.036
Saccharomyces cerevisiae [2]; [4]
  protein stability index: 0.771 ± 0.017
Saccharomyces cerevisiae [2]; [5]
  protein stability index: 0.654 ± 0.018
Saccharomyces cerevisiae [2]; [6]
  protein stability index: 0.7556 ± 0.0068
Saccharomyces cerevisiae [2]; [7]
  protein stability index: 0.373 ± 0.0045
Saccharomyces cerevisiae [2]; [8]
  protein stability index: 0.412 ± 0.018
Saccharomyces cerevisiae [2]; [9]
  protein stability index: 0.61183 ± 8.6e-05

## FIYSVFFYSYWF
Saccharomyces cerevisiae [1]
  protein stability index: 0.363 ± 0.016
Saccharomyces cerevisiae [2]; [3]
  protein stability index: 0.36 ± 0.043
Saccharomyces cerevisiae [2]; [4]
  protein stability index: 0.467 ± 0.033
Saccharomyces cerevisiae [2]; [5]
  protein stability index: 0.287 ± 0.015
Saccharomyces cerevisiae [2]; [6]
  protein stability index: 0.467 ± 0.0063
Saccharomyces cerevisiae [2]; [7]
  protein stability index: 0.318 ± 0.025
Saccharomyces cerevisiae [2]; [8]
  protein stability index: 0.272 ± 0.013
Saccharomyces cerevisiae [2]; [9]
  protein stability index: 0.429 ± 0.017

## GMCRVELIATCG
Saccharomyces cerevisiae [1]
  protein stability index: 0.307 ± 0.031
Saccharomyces cerevisiae [2]; [3]
  protein stability index: 0.368 ± 0.039
Saccharomyces cerevisiae [2]; [4]
  protein stability index: 0.409 ± 0.018
Saccharomyces cerevisiae [2]; [5]
  protein stability index: 0.276 ± 0.036
Saccharomyces cerevisiae [2]; [6]
  protein stability index: 0.453 ± 0.011
Saccharomyces cerevisiae [2]; [7]
  protein stability index: 0.229 ± 0.0046
Saccharomyces cerevisiae [2]; [8]
  protein stability index: 0.28 ± 0.026
Saccharomyces cerevisiae [2]; [9]
  protein stability index: 0.4381 ± 0.0011

## CFVFIGVGVLLG
Saccharomyces cerevisiae [1]
  protein stability index: 0.376 ± 0.037
Saccharomyces cerevisiae [2]; [3]
  protein stability index: 0.205 ± 0.0083
Saccharomyces cerevisiae [2]; [4]
  protein stability index: 0.387 ± 0.025
Saccharomyces cerevisiae [2]; [5]
  protein stability index: 0.29 ± 0.039
Saccharomyces cerevisiae [2]; [6]
  protein stability index: 0.4436 ± 0.00094
Saccharomyces cerevisiae [2]; [7]
  protein stability index: 0.224 ± 0.0069
Saccharomyces cerevisiae [2]; [8]
  protein stability index: 0.234 ± 0.021
Saccharomyces cerevisiae [2]; [9]
  protein stability index: 0.382 ± 0.014

## YTHRYFVRLFAV
Saccharomyces cerevisiae [1]
  protein stability index: 0.3123 ± 0.0026
Saccharomyces cerevisiae [2]; [3]
  protein stability index: 0.518 ± 0.047
Saccharomyces cerevisiae [2]; [4]
  protein stability index: 0.708 ± 0.0076
Saccharomyces cerevisiae [2]; [5]
  protein stability index: 0.504 ± 0.019
Saccharomyces cerevisiae [2]; [6]
  protein stability index: 0.6558 ± 0.0057
Saccharomyces cerevisiae [2]; [7]
  protein stability index: 0.206 ± 0.0073
Saccharomyces cerevisiae [2]; [8]
  protein stability index: 0.2 ± 0.014
Saccharomyces cerevisiae [2]; [9]
  protein stability index: 0.405 ± 0.0098

## ISLVLVVIEVQR
Saccharomyces cerevisiae [1]
  protein stability index: 0.209 ± 0.027
Saccharomyces cerevisiae [2]; [3]
  protein stability index: 0.0774 ± 0.045
Saccharomyces cerevisiae [2]; [4]
  protein stability index: 0.285 ± 0.042
Saccharomyces cerevisiae [2]; [5]
  protein stability index: 0.166 ± 0.042
Saccharomyces cerevisiae [2]; [6]
  protein stability index: 0.316 ± 0.017
Saccharomyces cerevisiae [2]; [7]
  protein stability index: 0.135 ± 0.0075
Saccharomyces cerevisiae [2]; [8]
  protein stability index: 0.143 ± 0.024
Saccharomyces cerevisiae [2]; [9]
  protein stability index: 0.249 ± 0.03

## LSPYPLTFLFSQ
Saccharomyces cerevisiae [1]
  protein stability index: 0.51 ± 0.042
Saccharomyces cerevisiae [2]; [3]
  protein stability index: 0.693 ± 0.07
Saccharomyces cerevisiae [2]; [4]
  protein stability index: 0.7506 ± 0.0056
Saccharomyces cerevisiae [2]; [5]
  protein stability index: 0.648 ± 0.014
Saccharomyces cerevisiae [2]; [6]
  protein stability index: 0.742 ± 0.0096
Saccharomyces cerevisiae [2]; [7]
  protein stability index: 0.365 ± 0.014
Saccharomyces cerevisiae [2]; [8]
  protein stability index: 0.393 ± 0.043
Saccharomyces cerevisiae [2]; [9]
  protein stability index: 0.61752 ± 0.00015

## RPLRRPRLPLLL
Saccharomyces cerevisiae [1]
  protein stability index: 0.4634 ± 0.0032
Saccharomyces cerevisiae [2]; [3]
  protein stability index: 0.654 ± 0.014
Saccharomyces cerevisiae [2]; [4]
  protein stability index: 0.698 ± 0.025
Saccharomyces cerevisiae [2]; [5]
  protein stability index: 0.646 ± 0.0082
Saccharomyces cerevisiae [2]; [6]
  protein stability index: 0.6926 ± 0.0026
Saccharomyces cerevisiae [2]; [7]
  protein stability index: 0.363 ± 0.011
Saccharomyces cerevisiae [2]; [8]
  protein stability index: 0.397 ± 0.035
Saccharomyces cerevisiae [2]; [9]
  protein stability index: 0.581 ± 0.01

## VFGARLFLIRLV
Saccharomyces cerevisiae [1]
  protein stability index: 0.223 ± 0.0077
Saccharomyces cerevisiae [2]; [3]
  protein stability index: 0.405 ± 0.059
Saccharomyces cerevisiae [2]; [4]
  protein stability index: 0.519 ± 0.069
Saccharomyces cerevisiae [2]; [5]
  protein stability index: 0.534 ± 0.033
Saccharomyces cerevisiae [2]; [6]
  protein stability index: 0.635 ± 0.023
Saccharomyces cerevisiae [2]; [7]
  protein stability index: 0.155 ± 0.027
Saccharomyces cerevisiae [2]; [8]
  protein stability index: 0.14 ± 0.041
Saccharomyces cerevisiae [2]; [9]
  protein stability index: 0.1767 ± 0.00049

## VGELYRLRKLHV
Saccharomyces cerevisiae [1]
  protein stability index: 0.313 ± 0.035
Saccharomyces cerevisiae [2]; [3]
  protein stability index: 0.69 ± 0.026
Saccharomyces cerevisiae [2]; [4]
  protein stability index: 0.73 ± 0.013
Saccharomyces cerevisiae [2]; [5]
  protein stability index: 0.607 ± 0.02
Saccharomyces cerevisiae [2]; [6]
  protein stability index: 0.728 ± 0.015
Saccharomyces cerevisiae [2]; [7]
  protein stability index: 0.222 ± 0.02
Saccharomyces cerevisiae [2]; [8]
  protein stability index: 0.249 ± 0.035
Saccharomyces cerevisiae [2]; [9]
  protein stability index: 0.506 ± 0.018

## HEVHATVPNQIM
Saccharomyces cerevisiae [1]
  protein stability index: 0.697 ± 0.011
Saccharomyces cerevisiae [2]; [3]
  protein stability index: 0.688 ± 0.026
Saccharomyces cerevisiae [2]; [4]
  protein stability index: 0.7487 ± 0.0024
Saccharomyces cerevisiae [2]; [5]
  protein stability index: 0.638 ± 0.01
Saccharomyces cerevisiae [2]; [6]
  protein stability index: 0.736 ± 0.0095
Saccharomyces cerevisiae [2]; [7]
  protein stability index: 0.649 ± 0.018
Saccharomyces cerevisiae [2]; [8]
  protein stability index: 0.653 ± 0.02
Saccharomyces cerevisiae [2]; [9]
  protein stability index: 0.7114 ± 0.0045

## LEGRVLRIFCVT
Saccharomyces cerevisiae [1]
  protein stability index: 0.263 ± 0.057
Saccharomyces cerevisiae [2]; [3]
  protein stability index: 0.496 ± 0.0051
Saccharomyces cerevisiae [2]; [4]
  protein stability index: 0.593 ± 0.03
Saccharomyces cerevisiae [2]; [5]
  protein stability index: 0.49 ± 0.0052
Saccharomyces cerevisiae [2]; [6]
  protein stability index: 0.651 ± 0.018
Saccharomyces cerevisiae [2]; [7]
  protein stability index: 0.191 ± 0.011
Saccharomyces cerevisiae [2]; [8]
  protein stability index: 0.212 ± 0.024
Saccharomyces cerevisiae [2]; [9]
  protein stability index: 0.37 ± 0.048

## CSAARKDGLAPL
Saccharomyces cerevisiae [1]
  protein stability index: 0.701 ± 0.024
Saccharomyces cerevisiae [2]; [3]
  protein stability index: 0.697 ± 0.038
Saccharomyces cerevisiae [2]; [4]
  protein stability index: 0.722 ± 0.02
Saccharomyces cerevisiae [2]; [5]
  protein stability index: 0.649 ± 0.02
Saccharomyces cerevisiae [2]; [6]
  protein stability index: 0.7342 ± 0.0011
Saccharomyces cerevisiae [2]; [7]
  protein stability index: 0.633 ± 0.021
Saccharomyces cerevisiae [2]; [8]
  protein stability index: 0.649 ± 0.029
Saccharomyces cerevisiae [2]; [9]
  protein stability index: 0.719 ± 0.032

## VVTICVASWSGL
Saccharomyces cerevisiae [1]
  protein stability index: 0.42 ± 0.0091
Saccharomyces cerevisiae [2]; [3]
  protein stability index: 0.521 ± 0.038
Saccharomyces cerevisiae [2]; [4]
  protein stability index: 0.573 ± 0.011
Saccharomyces cerevisiae [2]; [5]
  protein stability index: 0.352 ± 0.017
Saccharomyces cerevisiae [2]; [6]
  protein stability index: 0.54018 ± 4.7e-05
Saccharomyces cerevisiae [2]; [7]
  protein stability index: 0.362 ± 0.029
Saccharomyces cerevisiae [2]; [8]
  protein stability index: 0.36 ± 0.027
Saccharomyces cerevisiae [2]; [9]
  protein stability index: 0.532 ± 0.012

## FGFGSSRFLLCL
Saccharomyces cerevisiae [1]
  protein stability index: 0.471 ± 0.029
Saccharomyces cerevisiae [2]; [3]
  protein stability index: 0.677 ± 0.015
Saccharomyces cerevisiae [2]; [4]
  protein stability index: 0.731 ± 0.0042
Saccharomyces cerevisiae [2]; [5]
  protein stability index: 0.609 ± 0.027
Saccharomyces cerevisiae [2]; [6]
  protein stability index: 0.743 ± 0.0099
Saccharomyces cerevisiae [2]; [7]
  protein stability index: 0.3357 ± 0.0026
Saccharomyces cerevisiae [2]; [8]
  protein stability index: 0.384 ± 0.028
Saccharomyces cerevisiae [2]; [9]
  protein stability index: 0.604 ± 0.026

## SLVFCYSLFVFI
Saccharomyces cerevisiae [1]
  protein stability index: 0.402 ± 0.017
Saccharomyces cerevisiae [2]; [3]
  protein stability index: 0.342 ± 0.08
Saccharomyces cerevisiae [2]; [4]
  protein stability index: 0.464 ± 0.0058
Saccharomyces cerevisiae [2]; [5]
  protein stability index: 0.381 ± 0.039
Saccharomyces cerevisiae [2]; [6]
  protein stability index: 0.472 ± 0.012
Saccharomyces cerevisiae [2]; [7]
  protein stability index: 0.368 ± 0.044
Saccharomyces cerevisiae [2]; [8]
  protein stability index: 0.347 ± 0.04
Saccharomyces cerevisiae [2]; [9]
  protein stability index: 0.444 ± 0.028

## PRFRALLLIPVR
Saccharomyces cerevisiae [1]
  protein stability index: 0.27 ± 0.012
Saccharomyces cerevisiae [2]; [3]
  protein stability index: 0.0611 ± 0.016
Saccharomyces cerevisiae [2]; [4]
  protein stability index: 0.158 ± 0.029
Saccharomyces cerevisiae [2]; [5]
  protein stability index: 0.178 ± 0.046
Saccharomyces cerevisiae [2]; [6]
  protein stability index: 0.281 ± 0.022
Saccharomyces cerevisiae [2]; [7]
  protein stability index: 0.14 ± 0.026
Saccharomyces cerevisiae [2]; [8]
  protein stability index: 0.17 ± 0.018
Saccharomyces cerevisiae [2]; [9]
  protein stability index: 0.24 ± 0.033

## SFFLIISFFVRV
Saccharomyces cerevisiae [1]
  protein stability index: 0.338 ± 0.066
Saccharomyces cerevisiae [2]; [3]
  protein stability index: 0.2341 ± 0.0015
Saccharomyces cerevisiae [2]; [4]
  protein stability index: 0.394 ± 0.051
Saccharomyces cerevisiae [2]; [5]
  protein stability index: 0.23 ± 0.049
Saccharomyces cerevisiae [2]; [6]
  protein stability index: 0.366 ± 0.031
Saccharomyces cerevisiae [2]; [7]
  protein stability index: 0.239 ± 0.028
Saccharomyces cerevisiae [2]; [8]
  protein stability index: 0.224 ± 0.054
Saccharomyces cerevisiae [2]; [9]
  protein stability index: 0.336 ± 0.013

## MRVCLCLMLIVN
Saccharomyces cerevisiae [1]
  protein stability index: 0.238 ± 0.033
Saccharomyces cerevisiae [2]; [3]
  protein stability index: 0.179 ± 0.024
Saccharomyces cerevisiae [2]; [4]
  protein stability index: 0.282 ± 0.031
Saccharomyces cerevisiae [2]; [5]
  protein stability index: 0.214 ± 0.018
Saccharomyces cerevisiae [2]; [6]
  protein stability index: 0.372 ± 0.0069
Saccharomyces cerevisiae [2]; [7]
  protein stability index: 0.143 ± 0.022
Saccharomyces cerevisiae [2]; [8]
  protein stability index: 0.148 ± 0.028
Saccharomyces cerevisiae [2]; [9]
  protein stability index: 0.238 ± 0.0029

## LFGIDIVITYLL
Saccharomyces cerevisiae [1]
  protein stability index: 0.398 ± 0.011
Saccharomyces cerevisiae [2]; [3]
  protein stability index: 0.31 ± 0.011
Saccharomyces cerevisiae [2]; [4]
  protein stability index: 0.459 ± 0.064
Saccharomyces cerevisiae [2]; [5]
  protein stability index: 0.315 ± 0.036
Saccharomyces cerevisiae [2]; [6]
  protein stability index: 0.441 ± 0.017
Saccharomyces cerevisiae [2]; [7]
  protein stability index: 0.284 ± 0.015
Saccharomyces cerevisiae [2]; [8]
  protein stability index: 0.304 ± 0.019
Saccharomyces cerevisiae [2]; [9]
  protein stability index: 0.392 ± 0.026
